From PMC8234031, “Modular Assembly of Phosphite Dehydrogenase and Phenylacetone Monooxygenase for Tuning Cofactor Regeneration” (Biomolecules, 2021)

T1: PTDHI (phosphite dehydrogenase with a C-terminal RIDD tag)
T1 chain: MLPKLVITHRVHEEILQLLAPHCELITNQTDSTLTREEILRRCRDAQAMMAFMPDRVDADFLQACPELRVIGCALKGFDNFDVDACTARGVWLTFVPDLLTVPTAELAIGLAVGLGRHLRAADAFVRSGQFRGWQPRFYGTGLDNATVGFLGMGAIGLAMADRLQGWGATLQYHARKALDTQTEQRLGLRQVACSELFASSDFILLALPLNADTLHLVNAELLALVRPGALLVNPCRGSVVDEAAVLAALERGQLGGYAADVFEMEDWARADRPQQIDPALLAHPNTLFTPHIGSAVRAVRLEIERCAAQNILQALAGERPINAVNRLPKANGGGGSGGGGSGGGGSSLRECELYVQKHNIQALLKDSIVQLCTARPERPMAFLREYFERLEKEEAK

B1: PAMOI (phenylacetone monooxygenase with a C-terminal RIDD tag) (enzyme)
chain: MAGQTTVDSRRQPPEEVDVLVVGAGFSGLYALYRLRELGRSVHVIETAGDVGGVWYWNRYPGARCDIESIEYCYSFSEEVLQEWNWTERYASQPEILRYINFVADKFDLRSGITFHTTVTAAAFDEATNTWTVDTNHGDRIRARYLIMASGQLSVPQLPNFPGLKDFAGNLYHTGNWPHEPVDFSGQRVGVIGTGSSGIQVSPQIAKQAAELFVFQRTPHFAVPARNAPLDPEFLADLKKRYAEFREESRNTPGGTHRYQGPKSALEVSDEELVETLERYWQEGGPDILAAYRDILRDRDANERVAEFIRNKIRNTVRDPEVAERLVPKGYPFGTKRLILEIDYYEMFNRDNVHLVDTLSAPIETITPRGVRTSEREYELDSLVLATGFDALTGALFKIDIRGVGNVALKEKWAAGPRTYLGLSTAGFPNLFFIAGPGSPSALSNMLVSIEQHVEWVTDHIAYMFKNGLTRSEAVLEKEDEWVEHVNEIADETLYPMTASWYTGANVPGKPRVFMLYVGGFHRYRQICDEVAAKGYEGFVLTGGGGSGGGGSGGGGSSLRECELYVQKHNIQALLKDSIVQLCTARPERPMAFLREYFERLEKEEAK
B2: PTDHI (phosphite dehydrogenase with a C-terminal RIDD tag) (enzyme)
chain: T1 chain
modifications: PTDH taken as the thermostable A176R variant of PDB 4E5P (cited in Figure 1); the exact pCRE2 variant and C-terminus are not printed. RIDD taken as the conventional RI-alpha docking domain …

What was measured:
[1] = target: the molecule itself; assay: SEC; each purified tagged protein alone, in the absence of any other tagged protein; Superdex 200 (10/300), 50 mM Tris–HCl with 150 mM NaCl, pH 7.5
[2] = target: T1, PTDHI (phosphite dehydrogenase with a …); assay: as above; settings: both partners purified

Binder	stoichiometry N [1]	stoichiometry N [2]
B1	2	–
B2	–	2
